Publication PMC12811900 (Nature microbiology, 2025)

Target: the molecule itself
Assay: cryo-EM structure

B1: Sth enolase, untagged, expressed in E. coli (enzyme, Streptococcus thermophilus DGCC7710)
chain: MSIITDVYAREVLDSRGNPTLEVEVYTESGAFGRGMVPSGASTGEHEAVELRDGDKARYGGLGTQKAVDNVNNVIAEHIIGFDVRDQQGIDRAMIALDGTPNKGKLGANAILGVSIAVARAAADYLEVPLYSYLGGFNTKVLPTPMMNIINGGSHSDAPIAFQEFMIVPAGAPTFKEALRWGAEIFHALKKILKERGLETAVGDEGGFAPRFNGTEDGVETIIKAIEAAGYVPGKDVFIGLDCASSEFYDAERKVYDYTKFEGEGAAVRTAAEQIDYLEELVNKYPIITIEDGMDENDWDGWKALTERLGGKVQLVGDDFFVTNTAYLEKGIAEHAANSILIKVNQIGTLTETFDAIEMAKEAGYTAVVSHRSGETEDSTIADIAVATNAGQIKTGSLSRTDRIAKYNQLLRIEDQLGEVAEYRGLKSFYNLKK
  stoichiometry N: 8
